Legend:
[1] = target: GST-TA3mut (functionally impaired TA3 mutant, aa 361-370 replaced by alanines, fused to GST) (mouse) (UniProt Q04207); assay: affinity purification with mass spectrometry; SILAC; GST baits (GST-TA3, GST-TA3mut) immobilised; nuclear extracts of TNF-α-treated HeLa S3 cells or of 3T3 fibroblasts, 4 hours at 4°C; wash 20 mM Hepes pH 7.6, 1 mM EDTA, 10% glycerol, 0.1% NP40, 100 mM KCl; elution with 0.2% sarkosyl; label swap, four biological replicates
[2] = target: GST-TA3mut (functionally impaired TA3 mutant, aa 361-370 replaced by alanines, fused to GST) (mouse) (UniProt Q04207); assay: pull-down; GST alone, GST-TA3 or GST-TA3mut as baits; transfected HEK-293 cells overexpressing tagged Zbtb7a; Zbtb7a detected by immunoblotting

Chain of UniProt Q04207 (Q04207 other isoform, or with tags, fused parts or gaps, change not shown): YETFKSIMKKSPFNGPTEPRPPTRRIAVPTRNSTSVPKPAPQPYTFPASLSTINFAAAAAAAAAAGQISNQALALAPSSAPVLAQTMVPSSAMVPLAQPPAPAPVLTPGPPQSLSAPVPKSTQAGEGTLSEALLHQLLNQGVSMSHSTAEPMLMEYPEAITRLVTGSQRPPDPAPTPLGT

| fold reduction of binding against unmutated TA3 [1] | fold reduction of binding against unmutated TA3 [2] | Substance |
| --- | --- | --- |
| 5 to 7 times |  | Zbtb7a, endogenous in nuclear extracts of TNF-α-stimulated human HeLa S3 cells (from UniProt O95365 1-584) (natural protein) |
|  | 2 times | tagged Zbtb7a overexpressed in transfected HEK-293 cells (from UniProt O88939 1-569) (natural protein) |
